The source of these data is paper PMC6533540, “DprA Is Essential for Natural Competence in Riemerella anatipestifer and Has a Conserved Evolutionary Mechanism”.

The data set concerns the target T1, DprA (DprARa) (Riemerella anatipestifer ATCC11845, UniProt E4TBU2 1-367).
T1 sequence: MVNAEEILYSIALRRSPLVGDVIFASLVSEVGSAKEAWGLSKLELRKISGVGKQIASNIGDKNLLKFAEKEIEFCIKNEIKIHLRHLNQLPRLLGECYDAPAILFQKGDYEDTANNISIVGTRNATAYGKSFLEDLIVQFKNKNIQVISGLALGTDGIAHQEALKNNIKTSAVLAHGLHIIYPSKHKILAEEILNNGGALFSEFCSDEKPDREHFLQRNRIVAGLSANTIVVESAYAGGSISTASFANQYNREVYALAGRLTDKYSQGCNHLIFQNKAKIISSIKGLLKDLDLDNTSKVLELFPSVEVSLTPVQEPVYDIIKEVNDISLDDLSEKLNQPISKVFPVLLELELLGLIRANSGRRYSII
Briefly: EMSA; 1-20 uM DprA; 25 mM HEPES pH 7.0, 150 mM NaCl, 10% glycerol, 1 mM DTT, 0.05% IGEPAL, 30 min at 30 C; 8% native PAGE in 0.5x TBE on ice. The following applies: protein: recombinant, tags: C-terminal His6, chain copies: 2, label: biotin.

On to TAGGCTCTGCTAAGGAAGCGTGGGGTCTGTCTAAGTTGGA (ssDNA) [RA-ssDNA1], for which the binding result is recorded as “binds”.

B1: dsDNA annealed from RA-ssDNA1 (dsDNA)
DNA 1: TAGGCTCTGCTAAGGAAGCGTGGGGTCTGTCTAAGTTGGA
DNA 2: TCCAACTTAGACAGACCCCACGCTTCCTTAGCAGAGCCTA
For the molecule B1, the binding result (blunt) was “binds”. Turning to AAAAACTACGGAACTGACTAAAGGCAGAAAAACTAAACGG (ssDNA) [RA-ssDNA2], the binding result is given as “binds”.
